The values below come from patent US20180022809A1 (VENTANA MEDICAL SYSTEMS, published 2018).

No end group written: not given here.

In experiment [1] the target is human programmed death-ligand 1 (PD-L1) (human) (UniProt Q9NZQ7). Nature of the experiment: IHC on FFPE tissue sections of 119 NSCLC cases.
The target of experiment [2] is T1, peptide fragment of the cytoplasmic region (amino acid residues 279-290) of human PD-L1 (human, not fully specified).
T1 construct: For immunization, Cys-Gly was appended to the N-terminus and the peptide was conjugated to KLH; also called PD-L1 antigen
T1 peptide: SKKQSDTHLEET
Nature of the experiment: ELISA screen on the PD-L1 peptide antigen.

Sequence of human programmed death-ligand 1 (PD-L1) (human) (Q9NZQ7 19-290 limits assumed): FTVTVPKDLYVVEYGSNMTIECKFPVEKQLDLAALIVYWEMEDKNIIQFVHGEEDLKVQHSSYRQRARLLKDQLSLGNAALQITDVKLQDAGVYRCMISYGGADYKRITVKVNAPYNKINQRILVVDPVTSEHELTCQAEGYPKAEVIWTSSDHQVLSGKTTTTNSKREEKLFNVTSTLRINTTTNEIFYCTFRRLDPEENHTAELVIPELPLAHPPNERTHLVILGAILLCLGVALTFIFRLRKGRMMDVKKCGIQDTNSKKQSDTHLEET

For the molecule “anti-PD-L1 antibody E1L3N (Cell Signaling Technology)”, in experiment [1], the mean H score (extent of membrane immunoreactivity) (H score (range 0 to 300)) amounted to 56.

B1: anti-PD-L1 antibody SP142 (antibody, V domains shown)
VH: QSLEESGGRLVKPDETLTITCTVSGIDLSSNGLTWVRQAPGEGLEWIGTINKDASAYYASWAKGRLTISKPSSTKVDLKITSPTTEDTATYFCGRIAFKTGTSIWGPGTLVTVSS
VL: AIVMTQTPSPVSAAVGGTVTINCQASESVYSNNYLSWFQQKPGQPPKLLIYLASTLASGVPSRFKGSGSGTQFTLTISGVQCDDAATYYCIGGKSSSTDGNAFGGGTEVVVR
notes: the constant regions are not; also called rabbit anti-human PD-L1 (SP142) monoclonal antibody
Turning to B1, in experiment [2], the binding result is “binds”.
